Results taken from patent US20160200782A1 (MOERAE MATRIX, published 2016).

How the values were obtained:
Experiment in all cases: cell-based or functional assay
WNK2(h) = WNK2(h) (human, UniProt Q9Y3S1 166-489, limits assumed)
MINK(h) = MINK(h) (human, UniProt Q8N4C8 1-320, limits assumed)
Pim-1(h) = Pim-1(h) (human, UniProt P11309 1-313)
TAO1(h) = target: T1, TAO1(h) (human, UniProt Q7L7X3 1-320, limits assumed)
T1 sequence (looked up): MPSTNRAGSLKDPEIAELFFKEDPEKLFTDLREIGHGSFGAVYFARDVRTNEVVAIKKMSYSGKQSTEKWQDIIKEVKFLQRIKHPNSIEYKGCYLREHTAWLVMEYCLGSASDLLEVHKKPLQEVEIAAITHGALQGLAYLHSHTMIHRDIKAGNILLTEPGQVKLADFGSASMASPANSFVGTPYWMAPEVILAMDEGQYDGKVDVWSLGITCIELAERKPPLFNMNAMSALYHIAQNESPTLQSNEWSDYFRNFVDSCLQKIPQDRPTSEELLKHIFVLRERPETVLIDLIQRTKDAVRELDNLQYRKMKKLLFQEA

TrkB(h) = TrkB(h) (human, UniProt Q16620 455-822, limits assumed)
BRK(h) = BRK(h) (human, UniProt Q13882 1-451, limits assumed)
MSK1(h) = MSK1(h) (human, UniProt O75582 1-802, limits assumed)
PRK2(h) = PRK2(h) (human, UniProt Q16513 501-984, limits assumed)
RIPK2(h) = RIPK2(h) (human, UniProt O43353 1-299, limits assumed)
EphA3(h) = target: T2, EphA3(h) (human, UniProt P29320 566-983, limits assumed)
T2 sequence (looked up): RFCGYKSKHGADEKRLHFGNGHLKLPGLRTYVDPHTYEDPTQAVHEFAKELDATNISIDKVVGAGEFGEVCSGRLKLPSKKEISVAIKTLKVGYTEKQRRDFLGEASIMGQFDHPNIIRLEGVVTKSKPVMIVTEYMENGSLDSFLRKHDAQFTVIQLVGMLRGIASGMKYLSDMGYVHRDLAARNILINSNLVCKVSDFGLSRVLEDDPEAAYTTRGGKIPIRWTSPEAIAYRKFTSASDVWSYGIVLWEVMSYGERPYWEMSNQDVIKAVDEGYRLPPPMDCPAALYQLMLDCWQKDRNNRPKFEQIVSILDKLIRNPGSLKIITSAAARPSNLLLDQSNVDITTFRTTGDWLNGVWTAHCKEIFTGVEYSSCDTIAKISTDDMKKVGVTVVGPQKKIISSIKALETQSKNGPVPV

PAK2(h) = PAK2(h) (human, UniProt Q13177 1-524, limits assumed)
TSSK2(h) = target: T3, TSSK2(h) (human, UniProt Q96PF2 1-358)
T3 sequence (looked up): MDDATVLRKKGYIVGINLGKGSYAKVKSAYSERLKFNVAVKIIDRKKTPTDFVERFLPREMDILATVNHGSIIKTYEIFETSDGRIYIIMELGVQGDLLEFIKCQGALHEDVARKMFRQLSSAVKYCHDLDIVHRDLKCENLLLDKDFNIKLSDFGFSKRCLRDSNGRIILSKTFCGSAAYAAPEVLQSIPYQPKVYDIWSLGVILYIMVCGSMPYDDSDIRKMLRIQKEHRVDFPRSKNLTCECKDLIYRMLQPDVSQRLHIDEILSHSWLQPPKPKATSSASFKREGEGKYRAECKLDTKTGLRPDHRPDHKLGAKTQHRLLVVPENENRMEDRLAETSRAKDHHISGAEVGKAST

CDK5/p25(h) = CDK5/p25(h) (human, UniProt Q00535 1-292; Q15078 99-307)
IRAK1(h) = IRAK1(h) (human, UniProt P51617 194-712, limits assumed)
Ab1(Q252H)(h) = Ab1(Q252H)(h) (human, UniProt P00519 27-1130, limits assumed)
PKG1β(h) = target: T4, PKG1β(h) (human, UniProt Q13976-2 1-686)
T4 sequence (looked up): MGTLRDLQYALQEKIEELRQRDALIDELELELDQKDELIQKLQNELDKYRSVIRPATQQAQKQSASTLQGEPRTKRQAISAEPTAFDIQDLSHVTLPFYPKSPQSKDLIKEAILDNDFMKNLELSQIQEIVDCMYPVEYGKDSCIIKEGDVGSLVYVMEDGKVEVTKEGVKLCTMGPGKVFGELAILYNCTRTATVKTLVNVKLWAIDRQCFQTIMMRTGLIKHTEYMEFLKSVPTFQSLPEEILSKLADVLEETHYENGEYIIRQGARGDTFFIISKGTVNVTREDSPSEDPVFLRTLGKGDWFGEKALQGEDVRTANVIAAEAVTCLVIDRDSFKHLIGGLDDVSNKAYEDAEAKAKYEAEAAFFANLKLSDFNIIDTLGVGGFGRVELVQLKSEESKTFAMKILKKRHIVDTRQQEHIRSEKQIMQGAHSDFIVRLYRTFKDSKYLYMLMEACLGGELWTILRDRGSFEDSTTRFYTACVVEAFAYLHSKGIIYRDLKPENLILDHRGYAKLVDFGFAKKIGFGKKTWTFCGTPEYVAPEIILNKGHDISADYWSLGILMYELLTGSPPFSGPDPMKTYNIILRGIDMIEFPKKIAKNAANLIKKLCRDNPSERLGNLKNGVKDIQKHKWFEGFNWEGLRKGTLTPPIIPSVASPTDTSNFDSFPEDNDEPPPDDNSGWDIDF
Further: test concentration or dose not given here.

Sequence of TrkB(h) (Q16620 455-822 limits assumed): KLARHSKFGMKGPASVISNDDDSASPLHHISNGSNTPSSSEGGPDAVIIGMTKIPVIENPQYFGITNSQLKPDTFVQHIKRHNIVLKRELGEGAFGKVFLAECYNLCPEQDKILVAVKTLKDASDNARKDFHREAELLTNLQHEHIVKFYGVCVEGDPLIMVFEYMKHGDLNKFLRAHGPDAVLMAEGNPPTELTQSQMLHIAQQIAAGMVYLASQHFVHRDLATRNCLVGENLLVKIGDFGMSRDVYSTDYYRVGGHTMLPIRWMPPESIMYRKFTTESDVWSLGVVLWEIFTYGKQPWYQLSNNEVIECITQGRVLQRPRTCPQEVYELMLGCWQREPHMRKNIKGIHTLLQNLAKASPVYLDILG
Sequence of PAK2(h) (Q13177 whole entry): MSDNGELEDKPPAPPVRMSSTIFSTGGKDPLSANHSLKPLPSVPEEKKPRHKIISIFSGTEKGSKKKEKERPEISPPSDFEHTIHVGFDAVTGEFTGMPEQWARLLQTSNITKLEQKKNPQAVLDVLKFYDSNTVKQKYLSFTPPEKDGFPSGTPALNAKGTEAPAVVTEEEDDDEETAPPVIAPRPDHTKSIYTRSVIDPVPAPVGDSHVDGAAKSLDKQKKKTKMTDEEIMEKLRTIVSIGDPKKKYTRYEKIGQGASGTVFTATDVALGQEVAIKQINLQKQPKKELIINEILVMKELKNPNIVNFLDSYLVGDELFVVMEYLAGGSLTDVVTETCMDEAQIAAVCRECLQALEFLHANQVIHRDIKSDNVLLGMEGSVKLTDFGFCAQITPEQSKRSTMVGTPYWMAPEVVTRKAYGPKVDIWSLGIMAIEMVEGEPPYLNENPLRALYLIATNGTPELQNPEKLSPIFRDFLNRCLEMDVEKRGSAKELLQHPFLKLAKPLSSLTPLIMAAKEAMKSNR
Sequence of Ab1(Q252H)(h) (P00519 27-1130 Q252H limits assumed): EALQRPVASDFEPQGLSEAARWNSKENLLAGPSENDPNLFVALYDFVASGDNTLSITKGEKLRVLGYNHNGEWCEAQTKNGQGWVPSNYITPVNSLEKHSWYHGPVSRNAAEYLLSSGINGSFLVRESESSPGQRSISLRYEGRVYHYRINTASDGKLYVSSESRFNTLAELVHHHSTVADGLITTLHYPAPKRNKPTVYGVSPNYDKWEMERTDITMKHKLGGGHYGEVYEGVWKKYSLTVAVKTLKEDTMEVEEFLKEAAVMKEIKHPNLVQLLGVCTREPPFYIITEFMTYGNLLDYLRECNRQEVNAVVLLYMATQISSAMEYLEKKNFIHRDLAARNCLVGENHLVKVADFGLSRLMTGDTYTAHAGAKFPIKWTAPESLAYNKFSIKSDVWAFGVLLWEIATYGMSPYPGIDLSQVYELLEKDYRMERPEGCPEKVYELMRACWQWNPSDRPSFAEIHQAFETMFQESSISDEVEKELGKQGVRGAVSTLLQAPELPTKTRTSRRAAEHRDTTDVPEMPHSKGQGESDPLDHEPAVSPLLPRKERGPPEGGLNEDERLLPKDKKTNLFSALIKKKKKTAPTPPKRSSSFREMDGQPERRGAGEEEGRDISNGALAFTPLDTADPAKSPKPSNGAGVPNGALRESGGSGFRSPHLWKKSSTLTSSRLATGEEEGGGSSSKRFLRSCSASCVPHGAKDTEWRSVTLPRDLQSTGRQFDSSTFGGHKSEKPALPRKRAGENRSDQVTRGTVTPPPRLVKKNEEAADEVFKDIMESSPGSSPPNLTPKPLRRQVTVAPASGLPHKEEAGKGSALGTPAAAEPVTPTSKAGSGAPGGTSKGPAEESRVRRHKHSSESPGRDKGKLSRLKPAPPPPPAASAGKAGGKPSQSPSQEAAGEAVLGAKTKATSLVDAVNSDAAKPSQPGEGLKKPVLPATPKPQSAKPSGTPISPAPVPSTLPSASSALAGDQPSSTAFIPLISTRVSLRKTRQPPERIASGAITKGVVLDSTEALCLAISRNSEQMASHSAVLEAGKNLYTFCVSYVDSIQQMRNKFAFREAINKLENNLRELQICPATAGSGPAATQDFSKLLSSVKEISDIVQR
Sequence of MINK(h) (Q8N4C8 1-320 limits assumed): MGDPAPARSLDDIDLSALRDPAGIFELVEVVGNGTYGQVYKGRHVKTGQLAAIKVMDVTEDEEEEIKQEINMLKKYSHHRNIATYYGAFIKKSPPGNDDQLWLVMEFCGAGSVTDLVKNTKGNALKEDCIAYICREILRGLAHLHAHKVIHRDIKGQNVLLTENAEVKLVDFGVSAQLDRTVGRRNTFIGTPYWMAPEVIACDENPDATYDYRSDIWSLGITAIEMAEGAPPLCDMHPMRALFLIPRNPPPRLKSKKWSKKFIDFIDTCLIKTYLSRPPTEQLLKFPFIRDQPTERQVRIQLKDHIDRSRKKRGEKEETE
Sequence of PRK2(h) (Q16513 501-984 limits assumed): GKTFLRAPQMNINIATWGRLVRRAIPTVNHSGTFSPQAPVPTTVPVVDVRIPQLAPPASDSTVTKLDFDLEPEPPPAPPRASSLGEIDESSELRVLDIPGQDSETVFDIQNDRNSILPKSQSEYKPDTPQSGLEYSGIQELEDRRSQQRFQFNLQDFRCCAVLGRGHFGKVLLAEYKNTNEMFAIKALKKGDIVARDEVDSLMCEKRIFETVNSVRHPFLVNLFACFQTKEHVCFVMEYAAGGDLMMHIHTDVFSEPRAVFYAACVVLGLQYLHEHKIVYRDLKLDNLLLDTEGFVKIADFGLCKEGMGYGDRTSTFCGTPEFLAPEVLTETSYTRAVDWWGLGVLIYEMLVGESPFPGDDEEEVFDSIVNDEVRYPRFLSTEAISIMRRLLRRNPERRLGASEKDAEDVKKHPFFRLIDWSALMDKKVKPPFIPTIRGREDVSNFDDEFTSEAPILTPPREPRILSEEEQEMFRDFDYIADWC
Sequence of WNK2(h) (Q9Y3S1 166-489 limits assumed): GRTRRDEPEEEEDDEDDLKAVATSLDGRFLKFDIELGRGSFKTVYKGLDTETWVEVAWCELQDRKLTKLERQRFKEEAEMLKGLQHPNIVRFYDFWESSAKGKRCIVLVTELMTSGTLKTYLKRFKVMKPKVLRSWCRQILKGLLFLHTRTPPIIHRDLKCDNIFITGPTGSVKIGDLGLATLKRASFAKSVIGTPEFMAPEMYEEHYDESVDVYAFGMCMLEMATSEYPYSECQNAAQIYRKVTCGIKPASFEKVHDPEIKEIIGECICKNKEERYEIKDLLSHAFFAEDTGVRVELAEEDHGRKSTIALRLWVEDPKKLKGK
Sequence of IRAK1(h) (P51617 194-712 limits assumed): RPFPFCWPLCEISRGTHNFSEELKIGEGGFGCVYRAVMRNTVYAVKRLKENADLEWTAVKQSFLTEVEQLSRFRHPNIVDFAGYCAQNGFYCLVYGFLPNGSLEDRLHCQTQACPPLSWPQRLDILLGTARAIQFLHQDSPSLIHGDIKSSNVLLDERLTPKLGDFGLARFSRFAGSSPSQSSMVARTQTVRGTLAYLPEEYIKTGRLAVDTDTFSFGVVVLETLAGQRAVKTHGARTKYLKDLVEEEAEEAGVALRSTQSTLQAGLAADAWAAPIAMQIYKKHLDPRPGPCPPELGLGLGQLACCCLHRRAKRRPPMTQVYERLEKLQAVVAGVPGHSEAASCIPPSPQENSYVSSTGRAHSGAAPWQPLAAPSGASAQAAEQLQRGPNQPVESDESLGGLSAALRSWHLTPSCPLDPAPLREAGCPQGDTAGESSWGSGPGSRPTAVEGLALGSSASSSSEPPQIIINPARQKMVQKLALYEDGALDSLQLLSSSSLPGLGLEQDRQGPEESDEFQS
Sequence of MSK1(h) (O75582 whole entry): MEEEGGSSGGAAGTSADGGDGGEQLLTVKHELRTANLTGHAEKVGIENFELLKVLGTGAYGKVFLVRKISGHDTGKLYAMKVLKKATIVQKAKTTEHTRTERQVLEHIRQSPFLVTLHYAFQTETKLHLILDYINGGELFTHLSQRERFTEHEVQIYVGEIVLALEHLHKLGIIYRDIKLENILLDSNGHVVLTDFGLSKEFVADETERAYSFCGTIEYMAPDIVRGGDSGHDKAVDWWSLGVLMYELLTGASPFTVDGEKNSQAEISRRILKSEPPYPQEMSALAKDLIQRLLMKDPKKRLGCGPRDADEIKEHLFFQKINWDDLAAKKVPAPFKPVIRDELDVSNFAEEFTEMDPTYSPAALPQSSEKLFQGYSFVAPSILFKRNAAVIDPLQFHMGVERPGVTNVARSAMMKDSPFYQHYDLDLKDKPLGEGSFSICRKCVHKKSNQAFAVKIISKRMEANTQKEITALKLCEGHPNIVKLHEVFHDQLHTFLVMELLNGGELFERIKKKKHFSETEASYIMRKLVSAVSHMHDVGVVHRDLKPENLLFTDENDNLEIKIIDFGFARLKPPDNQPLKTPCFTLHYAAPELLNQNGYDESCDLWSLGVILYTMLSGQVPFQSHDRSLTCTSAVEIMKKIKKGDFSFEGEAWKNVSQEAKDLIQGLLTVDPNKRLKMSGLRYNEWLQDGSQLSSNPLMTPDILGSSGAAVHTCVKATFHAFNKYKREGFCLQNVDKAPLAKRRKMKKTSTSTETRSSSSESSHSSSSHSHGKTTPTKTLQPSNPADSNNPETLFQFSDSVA
Sequence of RIPK2(h) (O43353 1-299 limits assumed): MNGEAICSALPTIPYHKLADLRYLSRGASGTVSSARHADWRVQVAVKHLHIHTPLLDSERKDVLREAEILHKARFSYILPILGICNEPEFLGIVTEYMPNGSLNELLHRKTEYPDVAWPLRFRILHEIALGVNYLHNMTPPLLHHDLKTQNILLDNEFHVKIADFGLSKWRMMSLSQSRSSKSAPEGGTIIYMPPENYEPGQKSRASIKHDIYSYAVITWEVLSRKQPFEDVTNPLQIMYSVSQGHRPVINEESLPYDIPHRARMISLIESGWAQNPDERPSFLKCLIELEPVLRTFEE

For KAFAKLAARLYRKALARQLGVAA [MMI-0400], the “% activity” value (WNK2(h)) was 54%, the “% activity” value (MINK(h)) was 52% and the “% activity” value (Pim-1(h)) was 7%. For the same binder, the “% activity” value (TAO1(h)) was 73%, the “% activity” value (TrkB(h)) was 8% and the “% activity” value (BRK(h)) was 18%. For the same binder, the “% activity” value (MSK1(h)) was 28%, the “% activity” value (PRK2(h)) was 27% and the “% activity” value (RIPK2(h)) was 98%. For the same binder, the “% activity” value (EphA3(h)) was 12%, the “% activity” value (PAK2(h)) was 59% and the “% activity” value (TSSK2(h)) was 94%. The “% activity” value (CDK5/p25(h)) was 92%, the “% activity” value (IRAK1(h)) was 93% and the “% activity” value (Ab1(Q252H)(h)) was 98%. For the same binder, the “% activity” value (PKG1β(h)) was 53%.

For FAKLAARLYRKALARQLGVAA [MMI-0300], the “% activity” value (WNK2(h)) was 64%, the “% activity” value (MINK(h)) was 48% and the “% activity” value (Pim-1(h)) was 8%. For the same binder, the “% activity” value (TAO1(h)) was 82%, the “% activity” value (TrkB(h)) was 5% and the “% activity” value (BRK(h)) was 35%. The “% activity” value (MSK1(h)) was 32%, the “% activity” value (PRK2(h)) was 33% and the “% activity” value (RIPK2(h)) was 97%. For the same binder, the “% activity” value (EphA3(h)) was 6%, the “% activity” value (PAK2(h)) was 65% and the “% activity” value (TSSK2(h)) was 98%. For the same binder, the “% activity” value (CDK5/p25(h)) was 89%, the “% activity” value (IRAK1(h)) was 95% and the “% activity” value (Ab1(Q252H)(h)) was 82%. For the same binder, the “% activity” value (PKG1β(h)) was 50%.
